# Test results taken from patent publication US20250136678A1 (BIOSION, published 2025).
# Experiments:
# [1] = target: T1, human CLDN18.2 (NP_001002026.1) (human, UniProt P56856-2 1-261); experiment: FACS on BAF3-CLDN18.2 cells, FITC fluorescence; item F7; blank without antibody (H7) MFI 178
# T1 construct: whole, on cells; KATO III cells also served as target cells in the ADCC assay; also called Claudin18.2; Claudin-18 splice variant 2
# [2] = target: human CLDN18.1 (Uniprot No:P56856) (human) (UniProt P56856); experiment: FACS on BAF3-CLDN18.1 cells, FITC fluorescence; item B1; blank without antibody (C1) MFI 242
# [3] = target: T1, human CLDN18.2 (NP_001002026.1); experiment: FACS on BAF3-CLDN18.2 cells, FITC fluorescence; item G7; blank without antibody (H7) MFI 178
# [4] = target: human CLDN18.1 (Uniprot No:P56856) (human) (UniProt P56856); experiment: FACS on BAF3-CLDN18.1 cells, FITC fluorescence; item A1; blank without antibody (C1) MFI 242
# [5] = target: T1, human CLDN18.2 (NP_001002026.1); experiment: FACS on 293T-CLDN18.2 cells, PE fluorescence; item A4; blank without antibody (E4) MFI 21.8
# [6] = target: T1, human CLDN18.2 (NP_001002026.1); experiment: FACS on 293T-CLDN18.2 cells, PE fluorescence; item D4; blank without antibody (E4) MFI 21.8
# [7] = target: T1, human CLDN18.2 (NP_001002026.1); experiment: FACS on 293T-CLDN18.2 cells, PE fluorescence; item B4; blank without antibody (E4) MFI 21.8
# [8] = target: T1, human CLDN18.2 (NP_001002026.1); experiment: cell-based binding FACS on BAF3-CLDN18.2 cells, MFI against Con of mAb, nM is the unit of the x axis; low curve reaching only MFI about 300-400 at the last point
# Method: (§1) The BAF3-CLDN18.2, BAF3-CLDN18.1 and BAF3 cells were harvested, washed twice and re-suspended in phosphate buffered saline (PBS) containing 2% v/v Fetal Bovine Serum (FACS buffer), BAF3 cells were used here as blank control. The cells, 1×10⁵ per well, were incubated in 96 well-plates with 100 μl serially diluted antibodies or controls (starting from 10 μg/mL, 5-fold serial dilution) in FACS buffer for 50 minutes on ice. […] Following an incubation of 50 minutes at 4° C. in dark, cells were washed three times and re-suspended in FACS buffer. Fluorescence was measured using a Becton Dickinson FACS Canto II-HTS equipment, and the MFI (mean fluorescence intensity) was plotted against antibody concentration. Data was analyzed using Graphpad Prism and EC₅₀ values were reported.
# [9] = target: T1, human CLDN18.2 (NP_001002026.1); experiment: cell-based binding FACS on BAF3-CLDN18.2 cells, MFI against Con of mAb, nM is the unit of the x axis; the curve levels off near MFI 600
# Method: as §1
# [10] = target: T1, human CLDN18.2 (NP_001002026.1); experiment: cell-based binding FACS on BAF3-CLDN18.2 cells; y axis unlabelled, nM is the unit of the x axis; the curve reaches only about 800 at the last point
# Method: as §1
# [11] = target: T1, human CLDN18.2 (NP_001002026.1); experiment: cell-based binding FACS on BAF3-CLDN18.2 cells, MFI against Con of mAb, nM is the unit of the x axis; low curve (open down-triangles) reaching only MFI about 400-500
# Method: as §1
# [12] = target: T1, human CLDN18.2 (NP_001002026.1); experiment: cell-based blocking FACS on BAF3-CLDN18.2 cells; unlabeled Zolbetuximab against biotin labeled Zolbetuximab, SA-PE detection, nM is the unit of the x axis; signal falls only from about 870 to about 600 at the last point, no lower plateau is reached
# Method: The anti-CLDN18.2 antibodies of the disclosure, and the controls were diluted with FACS buffer starting from 10 μg/mL with 5-fold serial dilution. BAF3-CLDN18.2 cells were harvested from cell culture flasks at the log phase, washed twice and re-suspended in PBS containing 2% v/v Fetal Bovine Serum (FACS buffer). […] Then the cells were washed twice with FACS buffer, added with 100 μl/well SA-PE (1:200 dilution in FACS buffer, Cat #:016-110-084, Jackson Immunoresearch), and incubated for 40 minutes at 4° C. in dark. Cells were washed twice and re-suspended in FACS buffer. Fluorescence was measured using a Becton Dickinson FACS Canto II-HTS equipment. Data was analyzed using Graphpad Prism and IC₅₀ values were reported.
# [13] = target: T1, human CLDN18.2 (NP_001002026.1); experiment: cell-based binding FACS on BAF3-CLDN18.2 cells; y axis unlabelled, nM is the unit of the x axis; the three chimeric curves run close together and reach about 7200-7700 at the last point without a clear plateau
# Method: as §1
# [14] = target: T1, human CLDN18.2 (NP_001002026.1); experiment: cell-based binding FACS on BAF3-CLDN18.2 cells, MFI against Con of mAb, nM is the unit of the x axis; curve lies in a bundle of overlapping curves reaching MFI about 5000-6000
# Method: as §1
# [15] = target: T1, human CLDN18.2 (NP_001002026.1); experiment: cell-based binding FACS on BAF3-CLDN18.2 cells, MFI against Con of mAb (nM)
# Method: as §1
molecule,measurement,setting,value
"anti-CLDN18 antibody (Cat #ab203563, Abeam)",MFI at 1000 ng/ml,[1],3340
same,MFI at 500 ng/ml,[2],4020
same,MFI at 500 ng/ml,[3],3020
same,MFI at 1000 ng/ml,[4],5340
hIgG (antibody),MFI at 10000 ng/ml,[5],26.9
same,MFI at 156.25 ng/ml,[6],21.4
same,MFI at 2500 ng/ml,[7],28.7
"Zolbetuximab (antibody, human IgG1, kappa, V domains shown, also called IMAB362; Benchmark) VH: QVQLQQPGAELVRPGASVKLSCKASGYTFTSYWINWVKQRPGQGLEWIGNIYPSDSYTNYNQKFKDKATLTVDKSSSTAYMQLSSPTSEDSAVYYCTRSWRGNSFDYWGQGTTLTVSS VL: DIVMTQSPSSLTVTAGEKVTMSCKSSQSLLNSGNQKNYLTWYQQKPGQPPKLLIYWASTRESGVPDRFTGSGSGTDFTLTISSVQAEDLAVYYCQNDYSYPFTFGSGTKLEIKR",EC50,[8],5.48 nM
same,EC50,[9],2.44 nM
same,EC50,[10],11 nM
same,EC50,[11],4.67 nM
same,IC50,[12],17.3 nM
"chE1B1B8C7-V2 (antibody, human IgG1, kappa, V domains shown, Chimeric human IgG1/kappa; also called chimeric antibody chE1B1B8C7-V2) VH: QVQLQQPGAELVRPGTSVKLSCKASGYSFTNYWVNWVKQRPGQGLEWIGMVHPSGSETRLNQQFKDKATLTVDKSSNTAYMQLNRPTSEDSAVYYCARVWSGNAFDYWGQGTTLIVSS VL: DIVMTQSPSSLTVTAGEKVTLNCLSSQSLLNAGNQRNYLTWYQQKPGQPPKLLIYWASTRDSGVPDRFTGGGSGVDFTLTIYRVQAEDLAFYYCQNGFSFPFTFGSGTKLEMKR",EC50,[13],3.91 nM
"chE1B1B8C7-V3 (antibody, human IgG1, kappa, V domains shown, Chimeric human IgG1/kappa; also called chimeric antibody chE1B1B8C7-V3) VH: QVQLQQPGAELVRPGTSVKLSCKASGYSFTNYWVNWVKQRPGQGLEWIGMVHPSGSETRLNQQFKDKATLTVDKSSNTAYMQLNRPTSEDSAVYYCARVWSGNAFDYWGQGTTLIVSS VL: DIVMTQSPSSLTVTAGEKVTLNCLSSQSLLNEGNQRNYLTWYQQKPGQPPKLLIYWASTRDSGVPDRFTGGGSGVDFTLTIYRVQAEDLAFYYCQNGFSFPFTFGSGTKLEMKR",EC50,[13],7.79 nM
"chE1B1B8C7-V1 (antibody, human IgG1, kappa, V domains shown, Chimeric human IgG1/kappa; also called chimeric antibody chE1B1B8C7-V1) VH: QVQLQQPGAELVRPGTSVKLSCKASGYSFTNYWVNWVKQRPGQGLEWIGMVHPSGSETRLNQQFKDKATLTVDKSSNTAYMQLNRPTSEDSAVYYCARVWSGNAFDYWGQGTTLIVSS VL: DIVMTQSPSSLTVTAGEKVTLNCLSSQSLLASGNQRNYLTWYQQKPGQPPKLLIYWASTRDSGVPDRFTGGGSGVDFTLTIYRVQAEDLAFYYCQNGFSFPFTFGSGTKLEMKR",EC50,[13],6.19 nM
same,EC50,[14],3.08 nM
"huE1B1B8C7-V8 (antibody, human IgG1, kappa, V domains shown, Humanized, human IgG1/kappa; X positions as numbered in CLM-00003 and CLM-00004) VH: QVQLVQSGAEVKKPGASVKVSCKASGYSFTNYWVNWVRQAPGQGLEWIGMVHPSGSETRLNQQFKDKATLTRDTSTSTVYMELSSLRSEDTAVYYCARVWSGNAFDYWGQGTLVTVSS VL: DIVMTQSPDSLAVSLGERATINCLSSQSLLASGNQRNYLTWYQQKPGQPPKLLIYWASTRDSGVPDRFTGSGSGVDFTLTISSVQAEDVAVYYCQNGFSFPFTFGQGTKLEIKR",binding result,[15],binds
